From article PMC4259358, “Functional Characterization of Nuclear Localization and Export Signals in Hepatitis C Virus Proteins and Their Role in the Membranous Web” (PLoS ONE, 2014)

Key:
Experiment in all cases: ELISA; plates coated with synthetic peptide (10 µg/ml, carbonate buffer pH 9.6); increasing concentrations of recombinant NTF, 2 h, room temperature; anti-HIS detection; apparent Kd
[1] = biological target: NS3 NLS 2 synthetic peptide (fused to penetratin) (hepatitis C virus | not stated)
[2] = biological target: Core NLS 4 synthetic peptide (fused to penetratin) (hepatitis C virus | not stated)
[3] = biological target: NS5A NLS synthetic peptide (fused to penetratin) (hepatitis C virus | not stated)
[4] = biological target: SV40 NLS synthetic peptide (fused to penetratin) (SV40 | not stated)

recombinant IPOA5 (importin α5/kap α1), P52294 1-538 (natural protein; other documents disagree on this pair)
Kd [1]: 0.0366 µM | Kd [2]: 0.518 µM | Kd [3]: 7.63 µM | Kd [4]: 0.0272 µM
